T1: human Nectin4-Fc fusion protein (human, UniProt Q96NY8 32-349)
T1 construct: Recombinant protein coated in the scFv ELISA and captured on the anti-hFc chip in the scFv SPR; also called recombinant Nectin4-Fc fusion protein; human Nectin4-Fc protein; not shown: Fc part
T1 sequence (looked up): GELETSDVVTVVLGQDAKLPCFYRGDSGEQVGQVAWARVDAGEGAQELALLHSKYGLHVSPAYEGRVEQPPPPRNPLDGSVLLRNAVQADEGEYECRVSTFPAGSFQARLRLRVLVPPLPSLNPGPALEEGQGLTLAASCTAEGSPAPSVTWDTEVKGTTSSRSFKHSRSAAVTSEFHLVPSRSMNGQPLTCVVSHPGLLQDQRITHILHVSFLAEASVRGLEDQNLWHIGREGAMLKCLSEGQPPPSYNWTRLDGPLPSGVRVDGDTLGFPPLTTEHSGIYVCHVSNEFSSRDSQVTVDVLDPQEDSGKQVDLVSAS

T2: full-length human Nectin4 with C-terminal flag and Myc tags on CHO cells (human, UniProt Q96NY8 32-510)
T2 construct: whole, on cells; also called Nectin4/CHO; CHO/Nectin4; not shown: C-terminal flag and Myc tags of pCMV6-Entry vector
T2 sequence (looked up): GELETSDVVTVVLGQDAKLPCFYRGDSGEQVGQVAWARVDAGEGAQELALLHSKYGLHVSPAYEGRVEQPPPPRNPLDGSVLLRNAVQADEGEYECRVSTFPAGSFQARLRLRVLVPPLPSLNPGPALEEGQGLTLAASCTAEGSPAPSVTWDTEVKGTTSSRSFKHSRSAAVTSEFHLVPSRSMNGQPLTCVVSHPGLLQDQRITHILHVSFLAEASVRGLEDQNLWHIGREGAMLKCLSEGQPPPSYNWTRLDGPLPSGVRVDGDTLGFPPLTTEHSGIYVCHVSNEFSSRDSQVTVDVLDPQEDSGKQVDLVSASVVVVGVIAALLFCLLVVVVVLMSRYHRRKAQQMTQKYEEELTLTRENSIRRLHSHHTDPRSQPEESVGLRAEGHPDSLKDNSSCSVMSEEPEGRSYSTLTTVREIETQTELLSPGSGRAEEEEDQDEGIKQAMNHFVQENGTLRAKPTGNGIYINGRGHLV

B1: 2021EP032-D10 scFv (scFv, V domains shown)
VH: EVQLVESGAEVKKPGSSVKVSCKASGGTFSSYAISWVRQAPGQGLEWMGGIIPIFGTANYAQKFQGRVAITADESTSTAYMELSSLRSEDTAVYYCARDLAIVYGSGSYYNHHPRIDYYYYGMDVWGQGTTVTVSS
VL: QSVLTQPRSVSGSPGQSVTISCAGTSSDIGAYNYVSWYQQHPGKAPTLMINDVSKRPSGVPDRFSGSKSGNTASLTISGLQAEDEGDYYCFSYAGSYTLVFGGGTQLTVL
B2: 2021EP030-F02 scFv (scFv, V domains shown)
VH: QVQLQESGPGLVKPSETLSLTCTVSGGSISSSSYYWGWIRQPPGKGLEWIGSIYYSGSTYYNPSLKSRVTISVDTSKNQFSLKLSSVTAADTAVYYCARQANQVVPAAIPWAKPGGTPPNWFDPWGQGTLVTVSS
VL: QLVLTQPPSVSVAPGETARITCGGNNIGSKSVHWYQQKPGQAPVLVIYYDSARPSGIPERVSGSNSGNTATLTISRVEAGDEADYYCQVWDSSSDHPRVFGTGTKLTVL
B3: 2020EP034-B09 scFv (scFv, V domains shown)
VH: EVQLVQSGAEVKKPGASVKVSCKASGYTFTGYYMHWVRQAPGQGLEWMGRINPNSGGTNYAQKFQGRVTMTRDTSISTAYMELSGLRSDDTAVYFCARVTYNIGWYIDYWGQGTLVTVSS
VL: QAVVTQPPSVSVAPGKTATITCGGNNIGSKGVHWYQQKPGQAPVLVIYYDTDRPSGIPERLSGSNSGNTATLTISRVEAGDEADYYCQVWDSSSDHPVFGGGTKLTVL
B4: 2021EP029-C04 scFv (scFv, V domains shown)
VH: QLQLQQSGPGLVKPSQTLSLTCAISGDSVSSNRAAWSWIRQSPSRGLEWLGRTYYRSKWYNDYAVSVESRIIINPDTSKNQFSLQLNPVTPEDTAVYYCARGSFESTWLWGQGTLVTVSS
VL: QAVVTQPHSVSESPGKTVTISCTRSGGSIANNYVHWYQQRPGSFPTALIYQDNQRRSGVPDRFSGSIDSSSNSASLTISGLKTEDEAEYYCQSFDNNNVVFGGGTQLTVL
B5: 2021EP030-C11 scFv (scFv, V domains shown)
VH: QMQLVQSKPEVKKPGTSVKVSCKASGFTFTSSAVQWVRQARGQRLEWIGWIVVGSGNTNYAQKFQERVTITRDMSTSTAYMELSSLRSEDTAVYYCAADGDYDIEGALDYWGQGTLVTVSS
VL: EIVLTQSPAILSLSPGERATLSCRASQSVSSYLAWYQQKPGQAPRLLIYDASNRATGIPARFSGSGSGTDFTLTISSLEPEDFAVYYCQQRSNWITFGGGTKVEIK
B6: 2021EP032-E06 scFv (scFv, V domains shown)
VH: QVQLVESGAEVKKPGASVKVSCKASGYTFTGYYMHWVRQAPGQGLEWMGRINPNSGGTNYAQKFQGRFTISRDNSKTTLFLQMNSLRAEDTAVYYCAKADYQWVGAIFRLNAFDIWGQGTMVTVSS
VL: VIWMTQSPSSLSASVGDRVTITCRASQGISNYLAWYQQKPGKVPKLLIYAASTLQSGVPSRFSGSGSGTDFTLTISSLQPEDVATYYCQKYNSAPYTFGQGTKLEIK
B7: 2020EP034-E01 scFv (scFv, V domains shown)
VH: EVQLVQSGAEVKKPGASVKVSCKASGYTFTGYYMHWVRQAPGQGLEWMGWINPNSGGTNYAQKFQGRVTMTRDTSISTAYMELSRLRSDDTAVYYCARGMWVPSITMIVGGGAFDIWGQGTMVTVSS
VL: DVVMTQSPLSLPVTPGEPASMSCRSSESLLHRNGFNYLDWYVQRPGQSPKLLIYMGSYRASGVPDRFSGRGSGTDFALKISRVEAEDVGVYYCMQALQSPPLYTFGPGTKLEIK
B8: 2020EP47-F02 scFv (scFv, V domains shown)
VH: QVQLQQWGAGLLKPSETLSLTCAVYGGSFSGYYWSWIRQPPGKGLEWIGEINHSGSTNYNPSLKSRVTISVDTSKNQFSLKLSSVTAADTAVYYCARGWYLGFDYWGQGTLVTVSS
VL: QSVLTQPRSVSGSPGQSVTISCTGTSRDVGGYDYVSWYQQYPGKAPKLMISGVSERPSGVPDRFTGSRSANTASLTISGLQTDDEANYYCCSYAGSFTWVFGDGTKLTVL
notes: also called EP047-F02
B9: 2021EP030-B10 scFv (scFv, V domains shown)
VH: QVQLVESGGDLVNPGRSLRLACTGAGFTFGDYAVSWFRQAPGKGLEWVGFIESKPYGETREYAASVRGRFTISRDDSKGIAYLQMNGLKTEDTGVYYCSSVVAWVAYWGQGTLVTVSS
VL: AIQLTQSPSSLSASIGDRVTITCRASQSVTTYLNWYHQKPGKAPTFLIYGTSALQSGVPSRFSGSGSGTDFTLTISSLQPEDFGIYYCQQSYSLPPTFGGGTNVQIR
B10: 2021EP023-D06 scFv (scFv, V domains shown)
VH: QVQLVESGAEVKKPGSSVKVSCKASGGTFSSYAISWVRQAPGQGLEWMGGIIPIFGTANYAQKFQGRVTITADESTSTAYMELSSLRSEDTAVYYCARSRPVRGAYYWGQGTLVTVSS
VL: DIQMTQSPSSLSASVGDRVTITCRASQIVNSNYLNWYQQKPGKAPNLLIYGVSNLQVGVPSRFSGSGSGTDFTLSISSLQVEDSATYYCQQSYTTPRYSFGQGTKLEIRR
notes: Purified scFv with C-terminal flag and 6xHis tag

These binders were tested against T1, human Nectin4-Fc fusion protein (assay: ELISA, coated human Nectin4-Fc, scFv titrated, anti-Flag HRP).
Description: An ELISA assay was developed to determine the EC₅₀ of anti-Nectin4 antibodies. Briefly, 384 well plate was immobilized with human Nectin4-Fc at final concentration of 2 ug/mL in 1×PBS in total volume of 25 uL per well. The plate was incubated overnight at 4° C. followed by blocking with 80 uL of superblock per well for 1 hour. Purified anti-Nectin4 scFvs were 2-fold serial titrated from 200 nM. 25 uL was added to human Nectin4 immobilized wells and incubated for 1 hour with shaking. The Nectin4 binding was detected by adding 25 uL of anti-Flag HRP diluted at 1:5000 in 1×PBST. In between each step, the plate was washed 3 times with 1×PBST in a plate washer. The plate was then developed with 20 uL of TMB substrate for 5 mins and stopped by adding 20 uL of 2 N sulfuric acid. The plate was read at OD450 nm Biotek plate reader and then plotted in Prism 8.1 software.

| EC50 [nM] | Binder |
| --- | --- |
| 8.76 | B1 |
| 2.97 | B2 |
| 5.07 | B3 |
| 0.857 | B4 |
| 291 | B5 |
| 0.412 | B6 |

These binders were tested against T2, full-length human Nectin4 with … (assay: flow cytometry, scFv on Nectin4/CHO cells).
Description: To determine whether anti-Nectin4 scFvs bind to Nectin4 expressing cells, 200 nM of purified anti-Nectin4 scFv antibodies were diluted in full medium and incubated with Nectin4/CHO and CHO cells in 96 wells plate on ice for 1 hour. Cells were spun down at 1200 rpm for 5 minutes at 4° C. to remove primary antibodies. Cells were then washed once with 200 uL of full medium per well. Samples were detected with premixed anti-His Biotin Streptavidin Alexa fluor 647 by adding 100 uL of diluted secondary antibody and incubated at 4° C. for 30 minutes in the dark. Samples were spun down at 1200 rpm for 5 minutes at 4° C. and washed twice with 200 uL of 1×PBS per well. Reconstituted samples in 200 uL of 1×PBS and read on Attune NxT cytometer. Analysis was done by Attune NxT software plotting the overlay histogram of anti-Nectin4 scFvs binding onto both negative and target cell lines.

| EC50 [nM] | Binder |
| --- | --- |
| 0.29 | B1 |
| 0.194 | B2 |
| > 50 | B7 |
| 4.51 | B8 |
| 24.2 | B9 |
| 0.36 | B3 |
| 0.001 | B4 |
| 13 | B5 |
| < 0.001 | B6 |

Each binder was assayed against T1, human Nectin4-Fc fusion protein (assay: SPR Biacore T200, Nectin4-Fc captured on anti-hFc chip, scFv injected).
Description: Kinetic analysis of anti-Nectin4 scFvs has been assessed by SPR technology with Biacore T200. The assay was run with Biacore T200 control software version 2.0. Anti-human Fc antibody was immobilized on flow cell 1 and 2 of CM5 sensor chip. For each cycle, 1 ug/mL of human Nectin4-Fc protein was captured for 60 seconds at flow rate of 10 ul/min on flow cell 2 in 1×HBSP buffer on anti-hFc sensor chip. 2-fold serial diluted HIS tag purified anti-Nectin4 scFv was injected onto both reference flow cell 1 and Nectin4-Fc captured flow cell 2 for 150 seconds at flow rate of 30 ul/min followed by wash for 300 seconds. The flow cells were then regenerated with Antibody regeneration buffer (GE) for 30 seconds at flow rate of 30 ul/mins. 8 concentration points from 300-0 nM was assayed per anti-Nectin4 scFv in a 96 well plate. The kinetics of scFvs binding to Nectin4 protein was analyzed with Biacore T200 evaluation software version 3.0. The specific binding response unit was derived from subtraction of binding to reference flow cell 1 from Nectin4 captured flow cell 2.

| Kd [nM] | koff [s⁻¹] | kon [M⁻¹ s⁻¹] | Binder |
| --- | --- | --- | --- |
| 0.407 | 0.000195 | 480000 | B10 |
| 1.85 | 0.000215 | 116000 | B2 |
| 10.9 | 0.000406 | 37000 | B7 |
| 1.47 | 0.00018 | 122000 | B3 |
| 55.5 | 0.000262 | 4710 | B5 |
